Assays:
LexA-Trx1 fusion protein = LexA-Trx1 fusion protein (UniProt P22217); assay: yeast one-hybrid interaction assay
[1] = biological target: histidine-tagged human thioredoxin (human) (UniProt P10599); assay: pull-down
UniProt P10599, sequence (P10599 whole entry): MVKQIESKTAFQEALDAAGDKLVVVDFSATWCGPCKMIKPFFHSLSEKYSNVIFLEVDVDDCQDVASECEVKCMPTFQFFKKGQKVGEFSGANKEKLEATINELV

UniProt P22217, sequence (P22217 2-103): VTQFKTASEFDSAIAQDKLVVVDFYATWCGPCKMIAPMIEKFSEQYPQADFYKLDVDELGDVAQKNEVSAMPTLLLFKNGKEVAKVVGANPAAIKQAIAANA

With “human p53 expressed in yeast from pRS415-p53 (from UniProt P04637 1-393) (natural protein)” the β-gal activity (nmol ONP / min 10^7 cells) (LexA-Trx1 fusion protein) was 6.56.
For “purified baculovirus-expressed human p53 (from UniProt P04637 1-393) (natural protein)”, the Kd [1] was 940 nM.

Source: publication PMC2785850
